For assay [1], the target named is complement regulator Factor H (FH) (human) (UniProt P08603). Put plainly: MST; FH (6.67 µM) or C9 (15.15 µM) labelled with NT-647 RED-NHS; non-labelled CbiA diluted 1:2 from 76 to 0.0002 µM; fluid phase, 20% LED power, 80% MST power, 30 s, Monolith NT.115, room temperature, triplicate.
Assay [2] has as its target complement component C9 (human) (UniProt P02748). The assay is described as above.

Broadly, the Kd is the free concentration of one partner at which half of the binding sites on the other are occupied at equilibrium, for simple one-to-one binding. Lower therefore signals a tighter complex.

Chain of UniProt P02748 (P02748 22-559): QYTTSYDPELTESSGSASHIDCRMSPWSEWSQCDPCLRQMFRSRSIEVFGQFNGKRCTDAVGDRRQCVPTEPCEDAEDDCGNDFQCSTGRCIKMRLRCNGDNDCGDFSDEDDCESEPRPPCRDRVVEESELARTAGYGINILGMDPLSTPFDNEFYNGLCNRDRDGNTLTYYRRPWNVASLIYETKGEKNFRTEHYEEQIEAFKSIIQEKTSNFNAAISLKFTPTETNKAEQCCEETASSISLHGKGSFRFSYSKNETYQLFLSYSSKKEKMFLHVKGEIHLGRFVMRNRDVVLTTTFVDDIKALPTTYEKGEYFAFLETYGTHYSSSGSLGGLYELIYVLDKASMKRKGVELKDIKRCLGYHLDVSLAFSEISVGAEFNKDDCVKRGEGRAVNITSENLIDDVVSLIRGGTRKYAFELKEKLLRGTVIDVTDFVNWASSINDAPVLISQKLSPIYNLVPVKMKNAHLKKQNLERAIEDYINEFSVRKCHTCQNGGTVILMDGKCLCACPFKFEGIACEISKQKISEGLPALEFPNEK
Chain of UniProt P08603 (P08603 19-1231): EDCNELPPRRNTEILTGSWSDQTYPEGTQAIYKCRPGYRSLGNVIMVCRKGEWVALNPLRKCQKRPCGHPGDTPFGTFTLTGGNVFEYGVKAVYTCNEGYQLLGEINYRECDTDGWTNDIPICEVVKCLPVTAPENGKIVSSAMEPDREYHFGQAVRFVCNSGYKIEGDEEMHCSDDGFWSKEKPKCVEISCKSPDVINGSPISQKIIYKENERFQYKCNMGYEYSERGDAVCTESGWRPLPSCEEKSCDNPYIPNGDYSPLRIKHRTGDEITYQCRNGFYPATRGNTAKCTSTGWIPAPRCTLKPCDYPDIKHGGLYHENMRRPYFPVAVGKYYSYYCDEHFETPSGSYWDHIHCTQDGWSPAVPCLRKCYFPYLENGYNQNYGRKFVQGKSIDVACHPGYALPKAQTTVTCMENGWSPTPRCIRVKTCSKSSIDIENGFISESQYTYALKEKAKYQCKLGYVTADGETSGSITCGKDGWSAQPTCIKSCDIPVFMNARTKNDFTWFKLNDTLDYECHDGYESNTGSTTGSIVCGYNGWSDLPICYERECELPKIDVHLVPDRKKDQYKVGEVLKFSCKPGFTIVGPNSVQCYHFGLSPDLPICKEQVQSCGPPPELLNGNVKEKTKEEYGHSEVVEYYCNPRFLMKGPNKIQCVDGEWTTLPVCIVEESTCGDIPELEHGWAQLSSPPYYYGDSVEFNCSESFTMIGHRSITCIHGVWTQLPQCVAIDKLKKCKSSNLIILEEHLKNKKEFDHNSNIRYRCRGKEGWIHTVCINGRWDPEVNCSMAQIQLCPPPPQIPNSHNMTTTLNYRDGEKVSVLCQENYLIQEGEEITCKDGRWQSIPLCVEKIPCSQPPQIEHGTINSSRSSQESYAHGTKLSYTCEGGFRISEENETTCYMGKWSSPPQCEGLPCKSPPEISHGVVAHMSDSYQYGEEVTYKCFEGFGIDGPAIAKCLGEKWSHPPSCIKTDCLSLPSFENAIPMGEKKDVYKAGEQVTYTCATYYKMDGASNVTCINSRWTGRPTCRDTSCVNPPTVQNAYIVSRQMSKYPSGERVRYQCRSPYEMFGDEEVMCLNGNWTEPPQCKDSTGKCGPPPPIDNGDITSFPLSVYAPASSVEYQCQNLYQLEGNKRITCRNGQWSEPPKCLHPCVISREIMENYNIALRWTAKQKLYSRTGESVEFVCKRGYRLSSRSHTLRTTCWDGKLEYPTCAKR

As for “CbiA (complement binding and inhibitory protein A) of B. miyamotoi HT31, His6-tagged recombinant protein (natural protein)”, the dissociation constant (Kd) in assay [1] was found to be 6.59 µM; in assay [2], 0.0524 µM.

(Values after publication PMC5428533.)
